Laboratory results from US20240116985A1 (published 2024).
Starred links: 1 amine or outer side, 2 acyl side, 3 side chain; linkers in the order of their positions; H or OH if unused. Positions of bridges follow the written chain, without caps; N, C: chain ends. Non-standard residues stand in square brackets, D forms with d. Primed or numbered codes have the meaning given here. *: point of attachment. PyrS2″ = (S)-3-amino-1-((pent-4-en-1-yloxy)carbonyl)pyrrolidine-3-carboxylic acid (stapling residue), C=CCCCOC(=O)N1CC[C@@](N[*:1])(C(=O)[*:2])C1; B5(16) = 2-amino-2-(pent-4-en-1-yl)hept-6-enoic acid = 2,2-bis(4-pentenyl)glycine (stitching residue), C=CCCCC(CCCC=C)(N[*:1])C(=O)[*:2]; B5(4) = 2,2-bis(4-pentenyl)glycine = 2-amino-2-(pent-4-en-1-yl)hept-6-enoic acid (stitching residue), C=CCCCC(CCCC=C)(N[*:1])C(=O)[*:2]; TfeGA = (S)-2-amino-3-((carboxymethyl)(2,2,2-trifluoroethyl)amino)propanoic acid, O=C([C@H](CN(CC(=O)[*:3])CC(F)(F)F)N[*:1])[*:2]; PyrS2 = (S)-3-amino-1-((pent-4-en-1-yloxy)carbonyl)pyrrolidine-3-carboxylic acid, C=CCCCOC(=O)N1CC[C@@](N[*:1])(C(=O)[*:2])C1; 4MePipBz = 4-((4-methylpiperazin-1-yl)methyl)benzoyl on Lys side chain, CN1CCN(Cc2ccc(C(=O)*)cc2)CC1; MeBipipAc = 1'-methyl-[1,4'-bipiperidine]-4-carbonyl on Lys side chain, CN1CCC(N2CCC(C(=O)*)CC2)CC1; B5(3) = 2,2-bis(4-pentenyl)glycine (stitching residue), C=CCCCC(CCCC=C)(N[*:1])C(=O)[*:2]; MeMorphBz = 4-(morpholinomethyl)benzoyl on Lys side chain, O=C(c1ccc(CN2CCOCC2)cc1)*; B5 = 2-amino-2-(pent-4-en-1-yl)hept-6-enoic acid, C=CCCCC(CCCC=C)(N[*:1])C(=O)[*:2]; 22PhPr = 2,2-diphenylpropanoyl on Lys side chain, CC(C(=O)*)(c1ccccc1)c1ccccc1; Propanoyl(3-(1-naphthyl)) = O=C(CCc1cccc2ccccc12)*; Acetyl(4-Me-piperazin-1-yl) = CN1CCN(CC(=O)*)CC1; Phe(3-CONH2) = NC(=O)c1cccc(C[C@H](N)C(=O)O)c1; Phe(2-CF3) = N[C@@H](Cc1ccccc1C(F)(F)F)C(=O)O; Phe(2-CONH2) = NC(=O)c1ccccc1C[C@H](N)C(=O)O; Ala(cPent) = N[C@@H](CC1CCCC1)C(=O)O; Bta = N[C@@H](Cc1csc2ccccc12)C(=O)O; αAllylPro = C=CC[C@@]1(C(=O)O)CCCN1; Morpholinoacetyl = O=C(CN1CCOCC1)*; tBuAla = CC(C)(C)C[C@H](N)C(=O)O; 3Thi = N[C@@H](Cc1ccsc1)C(=O)O

T1: B-cat-Halo (UniProt P35222 1-781)
T1 sequence (looked up): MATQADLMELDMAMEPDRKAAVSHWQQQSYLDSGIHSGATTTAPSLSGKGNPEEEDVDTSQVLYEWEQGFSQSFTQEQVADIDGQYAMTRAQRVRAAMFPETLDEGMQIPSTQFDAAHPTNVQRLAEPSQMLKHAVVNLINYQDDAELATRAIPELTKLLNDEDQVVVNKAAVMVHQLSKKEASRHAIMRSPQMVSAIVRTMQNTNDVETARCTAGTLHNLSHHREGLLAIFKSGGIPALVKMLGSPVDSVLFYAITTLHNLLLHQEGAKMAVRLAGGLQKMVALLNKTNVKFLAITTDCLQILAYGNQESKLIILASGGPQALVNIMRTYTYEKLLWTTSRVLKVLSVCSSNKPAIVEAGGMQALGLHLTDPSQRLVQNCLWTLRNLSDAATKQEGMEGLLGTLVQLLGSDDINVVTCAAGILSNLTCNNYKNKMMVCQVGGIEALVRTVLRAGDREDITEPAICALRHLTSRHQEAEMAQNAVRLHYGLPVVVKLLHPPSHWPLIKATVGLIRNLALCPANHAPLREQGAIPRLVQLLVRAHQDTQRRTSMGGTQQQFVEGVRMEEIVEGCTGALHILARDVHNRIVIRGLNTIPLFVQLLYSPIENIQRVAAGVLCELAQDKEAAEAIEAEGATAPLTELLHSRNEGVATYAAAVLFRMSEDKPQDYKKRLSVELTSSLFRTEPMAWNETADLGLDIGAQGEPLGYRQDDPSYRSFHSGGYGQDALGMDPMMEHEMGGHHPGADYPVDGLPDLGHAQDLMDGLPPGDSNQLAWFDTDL

T2: B-cat-Halo (beta-catenin HaloTag NanoBRET construct expressed in HEK293 cells) (UniProt P35222 1-781)
T2 sequence (looked up): T1 sequence (looked up)


Each binder was assayed against T1, B-cat-Halo (assay: cell-based or functional assay).

Row | Binder | NanoBRET Abs IC50 [µM]
1 | Ac-[αAllylPro]D[tBuAla][B5(16)]D[TfeGA]AAFL[PyrS2″][3Thi][Bta]N-NH2 (staple 1-4, 4-11) [I-1705] | 2.9
2 | Ac-[αAllylPro]D[tBuAla][B5(4)]D[TfeGA]AAFL[PyrS2″][3Thi][Bta][Phe(3-CONH2)]-NH2 (staple 1-4, 4-11) [I-1708] | 11.9
3 | Ac-[αAllylPro]D[tBuAla][B5(16)]D[TfeGA]AAFL[PyrS2″][Phe(2-CF3)][Bta]Q-NH2 (staple 1-4, 4-11) [I-1704] | 5.3
4 | Ac-[αAllylPro]D[tBuAla][B5(4)]D[TfeGA]AAFL[PyrS2″]F[Bta]Q-NH2 (staple 1-4, 4-11; also: -CH=CH- in each staple reduced to -CH2-CH2-) [I-1711] | 33.3
5 | Ac-[αAllylPro]D[tBuAla][B5(4)]D[TfeGA]AAFL[PyrS2″][Ala(cPent)][Bta]Q-NH2 (staple 1-4, 4-11; also: -CH=CH- in each staple reduced to -CH2-CH2-) [I-1713] | > 20
6 | Ac-[αAllylPro]D[tBuAla][B5]D[TfeGA]AAFL[PyrS2][Ala(cPent)][Bta]Q-NH2 (staple 1-4, 4-11) [I-1703] | 6.6
7 | Ac-[αAllylPro]D[tBuAla][B5(4)]D[TfeGA]AAFL[PyrS2″][3Thi][Bta][Phe(2-CONH2)]-NH2 (staple 1-4, 4-11) [I-1707] | 6.1

The binders below were run against T2, B-cat-Halo (beta-catenin HaloTag …) (assay: cell-based or functional assay).

Row | Binder | NanoBRET Abs IC50 [µM]
8 | Ac-[αAllylPro]D[tBuAla][B5(3)]DDAAFN[PyrS2″][3Thi][Bta]QK(4MePipBz)-NH2 (staple 1-4, 4-11) [I-908] | 26
9 | Ac-[αAllylPro]D[tBuAla][B5(3)]DDAAFN[PyrS2″][3Thi][Bta]QK(MeBipipAc)-NH2 (staple 1-4, 4-11) [I-907] | 27.8
10 | Ac-[αAllylPro]D[tBuAla][B5(3)]DDAAFN[PyrS2″][3Thi][Bta]QK(Morpholinoacetyl)-NH2 (staple 1-4, 4-11) [I-905] | 31.6
11 | Ac-[αAllylPro]D[tBuAla][B5(3)]DDAAFN[PyrS2″][3Thi][Bta]QK(Propanoyl(3-(1-naphthyl)))-NH2 (staple 1-4, 4-11) [I-903] | 7.8
12 | Ac-[αAllylPro]D[tBuAla][B5(3)]DDAAFN[PyrS2″][3Thi][Bta]QK(22PhPr)-NH2 (staple 1-4, 4-11) [I-904] | 20
13 | Ac-[αAllylPro]D[tBuAla][B5(3)]DDAAFN[PyrS2″][3Thi][Bta]QK(MeMorphBz)-NH2 (staple 1-4, 4-11) [I-909] | 28.4
14 | Ac-[αAllylPro]D[tBuAla][B5(3)]DDAAFN[PyrS2″][3Thi][Bta]QK(Acetyl(4-Me-piperazin-1-yl))-NH2 (staple 1-4, 4-11) [I-906] | 26.5
